# Results published in patent US20120316071A1 (published 2012).
# Where a chain is given by its changes, count along the chain named. In names and notes the source's numbering stands.
# T1: rHuman Erythropoietin R/Fc Chimera, CF (R&D Systems Cat#963-ER) (human, UniProt P19235 25-250)
# T1 construct: Bought recombinant protein; also called EPO R; EPO R/Fc
# T1 sequence (looked up): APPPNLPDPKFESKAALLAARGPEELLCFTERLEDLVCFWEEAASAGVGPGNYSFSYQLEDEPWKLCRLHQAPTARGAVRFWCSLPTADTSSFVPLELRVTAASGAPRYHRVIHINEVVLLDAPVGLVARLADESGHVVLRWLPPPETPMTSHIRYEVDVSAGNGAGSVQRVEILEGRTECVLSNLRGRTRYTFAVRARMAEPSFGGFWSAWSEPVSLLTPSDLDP
# T2: rHuman Erythropoietin R/Fc Chimera, CF (human, UniProt P19235 25-250)
# T2 construct: Bought from R&D Systems; also called EPO R; EPO R/Fc; not shown: Fc of the bought chimera
# T2 sequence (looked up): T1 sequence (looked up)
# B1: Fab VH1-46_IGHD6-6*01_IGHJ1*01 S102A/S103P/S104F/H111F (APFF) & L6_IGKJ1*01 S31M (Fab, V domains shown)
# VH: QVQLVQSGAEVKKPGASVKVSCKASGYTFTSYYMHWVRQAPGQGLEWMGIINPSGGSTSYAQKFQGRVTMTRDTSTSTVYMELSSLRSEDTAVYYCAREEYAPFSAEYFQFWGQGTLVTVSS
# VL: EIVLTQSPATLSLSPGERATLSCRASQSVSMYLAWYQQKPGQAPRLLIYDASNRATGIPARFSGSGSGTDFTLTISSLEPEDFAVYYCQQRSNWPPWTFGQGTKVEIKR
# notes: Tested as Fab (CH1 with His6/Flag tags, kappa CL) made in E. coli; also called APFF / S31M
# B2: Fab VH1-46_IGHD6-6*01_IGHJ1*01 S102A/S103P/S104F/H111F (APFF) & L6_IGKJ1*01 S31P (Fab, V domains shown)
# VH: B1 VH
# VL: B1 VL with M31P
# notes: Tested as Fab (CH1 with His6/Flag tags, kappa CL) made in E. coli; also called APFF / S31P
# B3: Fab VH1-46_IGHD6-6*01_IGHJ1*01 S102A/S103P/S104F/H111F (APFF) & L6_IGKJ1*01 S31V (Fab, V domains shown)
# VH: B1 VH
# VL: B1 VL with M31V
# notes: Tested as Fab (CH1 with His6/Flag tags, kappa CL) made in E. coli; also called APFF / S31V
# B4: Fab VH1-46_IGHD6-6*01_IGHJ1*01 S102A/S103P/S104F/H111F (APFF) & L6_IGKJ1*01 S28F (Fab, V domains shown)
# VH: B1 VH
# VL: B1 VL with S28F, M31S
# notes: Fab made in E. coli; the variable domains were cloned into Plasmid A (CH1, His and Flag tags) and Plasmid C (kappa CL); also called APFF / S28F
# B5: Fab VH1-46_IGHD6-6*01_IGHJ1*01 S102A/S103P/S104F/H111F (APFF) & L6_IGKJ1*01 S28K (Fab, V domains shown)
# VH: B1 VH
# VL: B1 VL with S28K, M31S
# notes: Fab made in E. coli; the variable domains were cloned into Plasmid A (CH1, His and Flag tags) and Plasmid C (kappa CL); also called APFF / S28K
# B6: Fab VH1-46_IGHD6-6*01_IGHJ1*01 S102A/S103P/S104F/H111F (APFF) & L6_IGKJ1*01 S28L (Fab, V domains shown)
# VH: B1 VH
# VL: B1 VL with S28L, M31S
# notes: Fab made in E. coli; the variable domains were cloned into Plasmid A (CH1, His and Flag tags) and Plasmid C (kappa CL); also called APFF / S28L
# B7: Fab VH1-46_IGHD6-6*01_IGHJ1*01 S102A/S103P/S104F/H111F (APFF) & L6_IGKJ1*01 S28P (Fab, V domains shown)
# VH: B1 VH
# VL: B1 VL with S28P, M31S
# notes: Fab made in E. coli; the variable domains were cloned into Plasmid A (CH1, His and Flag tags) and Plasmid C (kappa CL); also called APFF / S28P
# B8: Fab VH1-46_IGHD6-6*01_IGHJ1*01 S102A/S103P/S104F/H111F (APFF) & L6_IGKJ1*01 S28V (Fab, V domains shown)
# VH: B1 VH
# VL: B1 VL with S28V, M31S
# notes: Fab made in E. coli; the variable domains were cloned into Plasmid A (CH1, His and Flag tags) and Plasmid C (kappa CL); also called APFF / S28V
# Target: T3, rHuman ErbB2/Fc Chimera, CF (R&D Systems Cat#1129-ER) (human, UniProt P04626 23-652)
# T3 construct: Bought recombinant protein; also called human epidermal growth factor 2 receptor
# Assay: ECL multispot (MSD) binding assay, antigen spotted on plate;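 note: purified Fab incubated 1 h at 20 °C on antigen spots, detected with TAG-labelled antibody, electrochemiluminescence compared with each well's blank, signal-to-blank ratio ≥4 counted as hit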
row,Binder,ECL signal
1,B1,352
2,B2,372
3,B3,300

# Target: T4, rHuman EGF R/Fc Chimera, CF (R&D Systems Cat#344-ER) (human, UniProt P00533 25-645)
# T4 construct: Bought recombinant protein; also called epidermal growth factor receptor
# Assay: as above
row,Binder,ECL signal
1,B1,380
2,B2,488
3,B3,363

# Target: T5, rHuman HGF R/c-MET/Fc Chimera, CF (R&D Systems Cat#358-MT/CF) (human, UniProt P08581 25-932)
# T5 construct: Bought recombinant protein; also called HGF R/Fc; hepatocyte growth factor receptor
# Assay: as above
# T5 sequence (P08581 25-932, change not shown): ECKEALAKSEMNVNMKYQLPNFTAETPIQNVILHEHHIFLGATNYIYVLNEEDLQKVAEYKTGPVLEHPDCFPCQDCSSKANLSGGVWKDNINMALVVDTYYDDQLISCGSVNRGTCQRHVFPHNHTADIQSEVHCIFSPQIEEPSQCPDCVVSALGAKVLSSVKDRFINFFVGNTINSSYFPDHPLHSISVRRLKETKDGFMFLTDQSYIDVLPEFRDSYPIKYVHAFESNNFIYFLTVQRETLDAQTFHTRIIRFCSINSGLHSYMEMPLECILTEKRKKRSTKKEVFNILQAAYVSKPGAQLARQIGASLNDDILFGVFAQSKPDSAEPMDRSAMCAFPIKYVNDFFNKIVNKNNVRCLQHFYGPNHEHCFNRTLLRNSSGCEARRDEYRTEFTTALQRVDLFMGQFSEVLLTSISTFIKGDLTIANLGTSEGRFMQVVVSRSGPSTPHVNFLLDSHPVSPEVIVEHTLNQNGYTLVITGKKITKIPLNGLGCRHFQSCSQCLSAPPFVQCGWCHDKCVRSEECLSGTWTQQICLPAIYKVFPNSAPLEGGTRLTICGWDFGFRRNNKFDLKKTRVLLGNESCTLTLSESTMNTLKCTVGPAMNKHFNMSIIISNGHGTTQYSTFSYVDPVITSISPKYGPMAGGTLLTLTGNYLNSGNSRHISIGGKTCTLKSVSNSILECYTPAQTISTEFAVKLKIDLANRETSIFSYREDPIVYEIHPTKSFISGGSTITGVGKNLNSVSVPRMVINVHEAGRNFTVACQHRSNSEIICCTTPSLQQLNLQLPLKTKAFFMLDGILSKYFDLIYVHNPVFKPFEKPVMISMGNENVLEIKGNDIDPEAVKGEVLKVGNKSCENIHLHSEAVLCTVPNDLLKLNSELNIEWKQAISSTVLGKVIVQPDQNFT
row,Binder,ECL signal
1,B1,293
2,B2,431
3,B3,288

# Target: T6, rHuman Notch-1/Fc Chimera, CF (R&D Systems Cat#3647-TK) (human, UniProt P46531 19-526)
# T6 construct: Bought recombinant protein
# Assay: as above
row,Binder,ECL signal
1,B1,474
2,B2,461
3,B3,374

# Target: T7, rHuman CD44/Fc Chimera, CF (R&D Systems Cat#3660-CD) (human, UniProt P16070 21-220)
# T7 construct: Bought recombinant protein
# Assay: as above
row,Binder,ECL signal
1,B1,488
2,B2,466
3,B3,384

# Target: T8, rHuman IGF-1 sR, (IGF-1 sR), CF (R&D Systems Cat#391-GR) (human, UniProt P08069 31-932)
# T8 construct: Bought recombinant soluble receptor; also called insulin-like growth factor-1 soluble receptor
# Assay: as above
row,Binder,ECL signal
1,B1,445
2,B2,404
3,B3,335

# Target: T9, rHuman P-Cadherin/Fc Chimera, CF (R&D Systems Cat#861-PC) (human, UniProt P22223 108-654)
# T9 construct: Bought recombinant protein
# Assay: as above
row,Binder,ECL signal
1,B1,510
2,B2,493
3,B3,360

# Target: T1, rHuman Erythropoietin R/Fc Chimera, CF …
# Assay: as above
row,Binder,ECL signal
1,B1,573
2,B2,594
3,B3,509

# Target: T10, Recombinant Human DLL4 (R&D Systems Cat#1506-D4/CF) (human, UniProt Q9NR61 27-524)
# T10 construct: Bought recombinant protein; also called delta-like protein 4; rHuman DLL4
# Assay: as above
row,Binder,ECL signal
1,B1,167000
2,B2,53300
3,B3,176000

# Target: T11, rHuman ErbB2/Fc Chimera, CF (human, UniProt P04626 23-652)
# T11 construct: Bought from R&D Systems; also called human epidermal growth factor 2 receptor; not shown: Fc of the bought chimera
# Assay: ECL Multispot (MSD) assay; antigen spotted on plate, Fab in solution;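 note: fab bound 1 h at 20 °C, detected by TAG-labelled antibody electrochemiluminescence, signal relative to each well's blank, ratio of 4 or more marks a hit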
row,Binder,ECL signal
1,B4,242
2,B5,270
3,B6,222
4,B7,427
5,B8,231

# Target: T12, rHuman EGF R/Fc Chimera, CF (human, UniProt P00533 25-645)
# T12 construct: Bought from R&D Systems; also called epidermal growth factor receptor; not shown: Fc of the bought chimera
# Assay: as above
row,Binder,ECL signal
1,B4,283
2,B5,386
3,B6,378
4,B7,370
5,B8,327

# Target: T13, rHuman HGF R/c-MET/Fc Chimera, CF (human, UniProt P08581 25-932)
# T13 construct: Bought from R&D Systems; also called HGF R/Fc; hepatocyte growth factor receptor; not shown: Fc of the bought chimera
# Assay: as above
# T13 sequence (P08581 25-932, change not shown): as above
row,Binder,ECL signal
1,B4,223
2,B5,355
3,B6,317
4,B7,318
5,B8,338

# Target: T14, rHuman Notch-1/Fc Chimera, CF (human, UniProt P46531 19-526)
# T14 construct: Bought from R&D Systems; not shown: Fc of the bought chimera
# Assay: as above
row,Binder,ECL signal
1,B4,367
2,B5,395
3,B6,392
4,B7,416
5,B8,289

# Target: T15, rHuman CD44/Fc Chimera, CF (human, UniProt P16070 21-220)
# T15 construct: Bought from R&D Systems; not shown: Fc of the bought chimera
# Assay: as above
row,Binder,ECL signal
1,B4,402
2,B5,464
3,B6,365
4,B7,365
5,B8,380

# Target: T16, rHuman IGF-1 sR, (IGF-1 sR), CF (human, UniProt P08069 31-932)
# T16 construct: Bought from R&D Systems; also called insulin-like growth factor-1 soluble receptor
# Assay: as above
row,Binder,ECL signal
1,B4,275
2,B5,348
3,B6,346
4,B7,392
5,B8,284

# Target: T17, rHuman P-Cadherin/Fc Chimera, CF (human, UniProt P22223 108-654)
# T17 construct: Bought from R&D Systems; not shown: Fc of the bought chimera
# Assay: as above
row,Binder,ECL signal
1,B4,336
2,B5,443
3,B6,418
4,B7,605
5,B8,344

# Target: T2, rHuman Erythropoietin R/Fc Chimera, CF
# Assay: as above
row,Binder,ECL signal
1,B4,413
2,B5,477
3,B6,404
4,B7,492
5,B8,446

# Target: T18, Recombinant Human DLL4 (human, UniProt Q9NR61 27-524)
# T18 construct: Bought from R&D Systems; also called delta-like protein 4; rHuman DLL4
# Assay: as above
row,Binder,ECL signal
1,B4,134000
2,B5,124000
3,B6,72300
4,B7,178000
5,B8,83100
